Sequences and labels used below:
T1: recombinant human CXCR3 (human, UniProt P49682 1-368, limits assumed)
T1 construct: also called C-X-C motif chemokine receptor 3
T1 sequence (looked up): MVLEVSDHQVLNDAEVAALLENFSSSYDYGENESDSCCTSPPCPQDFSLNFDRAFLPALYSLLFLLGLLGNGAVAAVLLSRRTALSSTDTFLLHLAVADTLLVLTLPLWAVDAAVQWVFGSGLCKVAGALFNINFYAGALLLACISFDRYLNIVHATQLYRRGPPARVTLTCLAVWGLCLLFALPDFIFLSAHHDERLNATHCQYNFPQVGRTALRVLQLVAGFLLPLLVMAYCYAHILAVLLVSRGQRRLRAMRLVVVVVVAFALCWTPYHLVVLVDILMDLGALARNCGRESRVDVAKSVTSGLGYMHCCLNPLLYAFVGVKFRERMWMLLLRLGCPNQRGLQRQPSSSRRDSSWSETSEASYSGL

B1: humanized clone 53 HuAntibody 23 (antibody, V domains shown)
VH: EVQLLESGGGLVQPGGSLRLSCAASGFTFTSYAMSWVRQAPGKGLEWVAVISHGGTYTYYADSVKGRFTISRDNAKNTLYLQMNSLRAEDTAVYYCARHPIYSGNYQGYFDYWGQGTLVTVSS
VL: DIQLTQSPSFLSASVGDRVTITCRASSGVNYLYWYQQKPGKAPKLWIYFTSTLAPGVPSRFSGSGSGNEYTLTISSLQPEDFATYYCQQFTSSPYTFGGGTKLEIK
notes: humanized anti-human CXCR3 mAb
B2: humanized clone 53 HuAntibody 24 (antibody, V domains shown)
VH: B1 VH with V50T, A61P, V93M
VL: B1 VL
notes: as for B1
B3: humanized clone 53 HuAntibody 26 (antibody, V domains shown)
VH: B1 VH
VL: B1 VL with G99Q
notes: as for B1
B4: humanized clone 53 HuAntibody 29 (antibody, V domains shown)
VH: B1 VH with V50T, A61P
VL: B1 VL with G99Q
notes: as for B1
B5: humanized clone 53 HuAntibody 35 (antibody, V domains shown)
VH: B1 VH with V50T, A61P, V93M
VL: B1 VL with P55S, G99Q
notes: as for B1
B6: humanized clone 53 HuAntibody 27 (antibody, V domains shown)
VH: B1 VH with V50T, A61P, V93M
VL: B1 VL with G99Q
notes: as for B1
B7: humanized clone 53 HuAntibody 33 (antibody, V domains shown)
VH: B1 VH with V50T, A61P
VL: B1 VL with P55S
notes: as for B1
B8: humanized clone 53 HuAntibody 25 (antibody, V domains shown)
VH: B1 VH with V50T, A61P
VL: B1 VL
notes: as for B1
B9: humanized clone 53 HuAntibody 30 (antibody, V domains shown)
VH: B1 VH
VL: B1 VL with P55S
notes: as for B1
B10: humanized clone 53 HuAntibody 31 (antibody, V domains shown)
VH: B1 VH with V50T, A61P, V93M
VL: B1 VL with P55S
notes: as for B1
B11: humanized clone 53 HuAntibody 34 (antibody, V domains shown)
VH: B1 VH
VL: B1 VL with P55S, G99Q
notes: as for B1

Where a chain is given by its changes, count along the chain named.

The Kd is the equilibrium constant for the complex coming apart. Broadly, the koff is the rate constant with which the complex falls apart. As a reminder, the kon is the second-order rate constant of association.

The target of the assay is T1, recombinant human CXCR3. The assay can be described thus: binding kinetics; method and antigen not given.
For the molecule B1, the equilibrium dissociation constant (Kd) was 0.322 nM, the koff came to 2.45e-05 s⁻¹ and the kon was 75600 M⁻¹ s⁻¹.

B2: the Kd was found to be 0.0614 nM, the koff came out at 6.16e-06 s⁻¹ and the kon came out at 101000 M⁻¹ s⁻¹.

For B3, the Kd came to 0.537 nM, the koff stood at 5.46e-05 s⁻¹ and the kon turned out to be 101000 M⁻¹ s⁻¹.

As to B4, the Kd amounted to 0.303 nM, the koff was determined as 3.5e-05 s⁻¹ and the kon stood at 115000 M⁻¹ s⁻¹.

B5: the Kd was 0.0456 nM, the koff is 4.73e-06 s⁻¹ and the kon is 102000 M⁻¹ s⁻¹.

As to B6, the Kd turned out to be 0.0737 nM, the koff is 8.34e-06 s⁻¹ and the kon is 113000 M⁻¹ s⁻¹.

Turning to B7, the Kd came to 0.656 nM.

B8: the Kd is 0.623 nM, the koff is 6.21e-05 s⁻¹ and the kon came out at 99500 M⁻¹ s⁻¹.

As to B9, the equilibrium dissociation constant (Kd) turned out to be 1.34 nM, the koff amounted to 0.000126 s⁻¹ and the kon was found to be 93700 M⁻¹ s⁻¹.

In the case of B10, the Kd worked out at 0.449 nM, the koff was found to be 5e-05 s⁻¹ and the kon was determined as 111000 M⁻¹ s⁻¹.

As to B11, the Kd stood at 1.03 nM, the koff was 9.19e-05 s⁻¹ and the kon amounted to 88900 M⁻¹ s⁻¹.

For the origin of these results see patent US20180244787A1 (Sanofi, published 2018).
